For test [1], the target named is T1, synthetic peptide CCR6-1 (1st to 17th amino acids of human CCR6) (human, also: 11 PEG units at the C-terminal side).
T1 construct: also called CCR6-1 peptide
T1 peptide: MSGESMNFSDVFDSSEDC
The experiment in a line: binding ELISA on coated peptide. A general note: ELISA stands for enzyme-linked immunosorbent assay.

Test [2] deals with T2, synthetic peptide CCR6-2S (9th to 23rd amino acids of human CCR6, Tyr18-sulfation) (human).
T2 construct: also called CCR6-2S peptide; P2: CCR6-2S(B)
T2 peptide: CSDVFDSSED[sY]FVSVN
Description: binding ELISA on coated peptide.

For test [3], the target named is T3, synthetic peptide CCR6-2 (9th to 23rd amino acids of human CCR6) (human, not fully specified).
T3 construct: Not sulfated; also called CCR6-2 peptide; P3: CCR6-2(B)
T3 peptide: CSDVFDSSEDYFVSVN
The experiment in a line: binding ELISA on coated peptide.

The target in test [4] is T4, human CCR6 with C-terminal His tag, on CHO-hCCR6 (isoform1) or U937-CCR6 cells (human, UniProt P51684 1-374).
T4 construct: Expressed from pKANTEX-hCCR6 (isoform1) in CHO/DG44 cells (CHO-hCCR6) and in U937 cells (U937-CCR6); also called hCCR6-His-tag
T4 sequence: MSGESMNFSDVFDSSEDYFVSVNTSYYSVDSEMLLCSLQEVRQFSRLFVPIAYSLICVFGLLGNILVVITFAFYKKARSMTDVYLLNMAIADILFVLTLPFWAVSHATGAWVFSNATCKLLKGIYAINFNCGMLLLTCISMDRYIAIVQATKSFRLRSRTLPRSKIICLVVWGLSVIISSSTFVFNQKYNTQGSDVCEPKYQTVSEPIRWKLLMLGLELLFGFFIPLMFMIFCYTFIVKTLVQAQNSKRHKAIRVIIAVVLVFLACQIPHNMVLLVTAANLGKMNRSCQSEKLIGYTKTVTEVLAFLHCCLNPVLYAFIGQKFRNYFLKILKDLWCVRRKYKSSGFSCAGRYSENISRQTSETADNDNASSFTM
Description: flow cytometry on CHO-hCCR6 cells.

The target of test [5] is T5, cynomolgus monkey CCR6 (isoform 1, 177Val type) with C-terminal His tag, on CHO-cynomolgus CCR6 cells (cynomolgus monkey, UniProt P51684 1-374 (human entry)).
T5 construct: also called mfCCR6
T5 chain: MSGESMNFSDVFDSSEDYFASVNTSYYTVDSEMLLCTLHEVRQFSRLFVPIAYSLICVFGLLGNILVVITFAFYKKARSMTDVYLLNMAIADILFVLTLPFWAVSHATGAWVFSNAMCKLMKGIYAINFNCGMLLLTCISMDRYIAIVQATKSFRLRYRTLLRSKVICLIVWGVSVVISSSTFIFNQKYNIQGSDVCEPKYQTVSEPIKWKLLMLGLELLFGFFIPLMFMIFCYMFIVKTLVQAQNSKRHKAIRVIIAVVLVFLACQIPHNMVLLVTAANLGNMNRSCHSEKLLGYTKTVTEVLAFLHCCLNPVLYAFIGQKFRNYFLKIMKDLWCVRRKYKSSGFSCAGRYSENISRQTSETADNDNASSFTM
The experiment in a line: flow cytometry on CHO-cynomolgus CCR6 cells. On the technique in general: In flow cytometry, cells or beads pass a laser one at a time.

Test [6] deals with T6, synthetic peptide CCR6-3 (20th to 34th amino acids of human CCR6) (human, Cys residue introduced at the N-terminal or C-terminal side).
T6 construct: also called CCR6-3 peptide
T6 peptide: CVSVNTSYYSVDSEML
Description: binding ELISA on coated peptide.

The target in test [7] is T7, synthetic peptide CCR6-4 (30th to 46th amino acids of human CCR6) (human, also: 11 PEG units at the N-terminal side).
T7 construct: also called CCR6-4 peptide
T7 peptide: DSEMLLSSLQEVRQFSRC
The experiment in a line: binding ELISA on coated peptide.

For test [8], the target named is T1, synthetic peptide CCR6-1 (1st to 17th …). The experiment in a line: binding ELISA on coated peptide, 10 μg/mL antibody.
Test [9] has as its target T2, synthetic peptide CCR6-2S (9th to 23rd …). The experiment in a line: binding ELISA on coated peptide, 10 μg/mL antibody.
The target in test [10] is T3, synthetic peptide CCR6-2 (9th to 23rd …). The experiment in a line: binding ELISA on coated peptide, 10 μg/mL antibody.
Test [11] deals with T4, human CCR6 with C-terminal His tag, on …. The experiment in a line: flow cytometry on CHO-hCCR6 cells, 0.0001 to 10 μg/mL antibody.
The target in test [12] is T5, cynomolgus monkey CCR6 (isoform 1, …). Description: flow cytometry on CHO-cynomolgus CCR6 cells, 0.0001 to 10 μg/mL antibody.
The target in test [13] is T8, human CCR6 N-terminal extracellular domain Fc fusion protein NthCCR6-IgG4Fc (human, contains a sulfated Tyr residue; N-linked sugar chains).
T8 construct: Made in CHO/DG44 cells; also called NthCCR6-Fc; NtCCR6-IgG4Fc
T8 sequence (chain, as listed by the source limits assumed): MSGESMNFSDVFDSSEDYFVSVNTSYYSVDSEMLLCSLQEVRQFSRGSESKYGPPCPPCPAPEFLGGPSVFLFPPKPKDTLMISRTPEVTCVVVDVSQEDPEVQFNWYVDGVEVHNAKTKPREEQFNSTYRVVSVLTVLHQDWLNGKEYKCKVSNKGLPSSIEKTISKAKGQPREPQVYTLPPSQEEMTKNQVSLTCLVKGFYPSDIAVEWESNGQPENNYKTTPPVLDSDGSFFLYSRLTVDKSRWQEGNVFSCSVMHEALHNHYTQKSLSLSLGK
The experiment in a line: SPR, Biacore T100; NthCCR6-IgG4Fc captured on anti-human IgG CM5 chip, antibody injected. For orientation: SPR reads the build-up and loss of mass on a sensor chip optically.

Where a chain is given by its changes, count along the chain named. Non-standard residues stand in square brackets, D forms with d. No end group written: not given here. sY = N[C@@H](Cc1ccc(OS(=O)(=O)O)cc1)C(=O)O

B1: anti-human CCR6 chimeric antibody KM4705 chimera (antibody, human IgG1, V domains shown)
VH: EVQLVETGGGLVQPKGSLKLSCAASGFSFKTNAMNWVRQAPGKGLEWVARIRSKINNYATYYADSVKDRFTISRDDSQSMLYLQMNNLKTEDTAMYYCVSDHYGYGAVDYWGQGTSVTVSS
VL: DIQMNQSPSSLSASLGDTITITCRASQNINIWLSWYQQKPGSIPKLLIYKASNLHTGVSSRFSGSGYGTDFTLTISSLQPEDIATYYCLQGRSYPLTFGGGTNLEIK
B1: the binding result in test [1], in test [2], in test [3], in [4] and in test [5] was “binds” each time.

B2: anti-human CCR6 mouse monoclonal antibody KM4705 (antibody, mouse IgG2b, V domains shown)
VH: B1 VH
VL: B1 VL
As a reminder, the Kd is a measure of binding affinity in units of concentration. Take B2: the binding result in test [6] was “no binding (tested: 10 μg/mL)”; in test [7], “no binding (tested: 10 μg/mL)”; in test [8] it was “binds”; in test [9], “binds”; in test [10], “binds”; in test [11], “binds”. Besides, the binding result in test [12] is recorded as “binds”. Also, binding in test [13] was put at a Kd of 6.52 nM.

B3: anti-human CCR6 chimeric antibody KM4592 chimera (antibody, human IgG1, V domains shown)
VH: DVQLVESGGGLVQPGGSRKLSCAASGFTFSSFGMHWVRQAPEKGLEWVAYISTGSGSIYYADTVKGRFTISRDNPKNTLFLQMTSLRSEDTAIYYCLKGGDGYYVAAWFAYWGQGTLVTVSA
VL: DIVLTQAAPSVSVTPGESVSISCRSSKSLLHTNDNTYLYWFLQRPGQSPQLLIYRMSNLASGVPDRFSGSGSGTAFTLRISRVEAEDVGVYYCMQHLEYPLTFGAGTKLELK
On to B3, for which the binding result in test [1] is “no binding”; in [4], “binds”; in [5], “binds”.

B4: anti-human CCR6 mouse monoclonal antibody KM4592 (antibody, V domains shown)
VH: B3 VH
VL: B3 VL
With B4, the binding result was “no binding (tested: 10 μg/mL)” in test [1]; “no binding (tested: 10 μg/mL)” in test [6]; “no binding (tested: 10 μg/mL)” in [7]; “binds” in test [11]; “binds” in test [12]. Besides, the affinity in [13], expressed as Kd, was 0.38 nM.

B5: anti-human CCR6 chimeric antibody KM4703 chimera (antibody, human IgG1, V domains shown)
VH: QVQMKETGPGLVQPTQTLSLTCTVSGFSLTSSRVHWVRQPPGKGLEWMGVIYYDGKTDYNATLKSRLSISRDTSKSQVFLKINSLQTDDTAMYYCAGGVIMDAWGQGASVTVSP
VL: DVLMTQIPVSLPVSLGGQVAISCRSSQSLVHTDGNTYLHWYLQKPGQSPQLLIYRVSNRFSGVPDRFSGSGSGTDFTLKISRVEPEDLGVYYCSQRTYFPLTFGSGTKLEIK
With B5, the binding result in test [1] is on record as “no binding”; in [4] it was “binds”; in test [5], “binds”.

B6: anti-human CCR6 rat monoclonal antibody KM4703 (antibody, rat IgG2b, V domains shown)
VH: B5 VH
VL: B5 VL
On to B6, for which the binding result is recorded as “no binding (tested: 10 μg/mL)” in [1]; “no binding (tested: 10 μg/mL)” in [6]; “no binding (tested: 10 μg/mL)” in [7]; “binds” in test [11]; “binds” in test [12]. Moreover, the affinity in test [13], expressed as Kd, was 1.15 nM.

B7: anti-human CCR6 rat monoclonal antibody KM4704 (antibody, rat IgG2b, V domains shown)
VH: EVQLQESGPGLVKPSQSLSLTCSVTGYSITSNYWGWIRKFPGNKMEWMGYTSSSGSTSYNPYLKSRISITRDTSKNQFFLKLNSVTTEDTATYYCTGGYVMDAWGQGASVTVSS
VL: B5 VL with I7T, A20S, T32S, S94L, F99V, L101W, S105G, E110D, I111L
Turning to B7, the binding result is recorded as “no binding (tested: 10 μg/mL)” in test [1]; “no binding (tested: 10 μg/mL)” in test [6]; “no binding (tested: 10 μg/mL)” in test [7]; “binds” in test [11]; “binds” in [12]. In test [13], this molecule returned a Kd of 0.67 nM.

B8: anti-human CCR6 chimeric antibody KM4704 chimera (antibody, human IgG1, V domains shown)
VH: B7 VH
VL: B5 VL with I7T, A20S, T32S, S94L, F99V, L101W, S105G, E110D, I111L
On to B8, for which the results for the binding result in test [1], in test [4] and in test [5] were “no binding”, “binds” and “binds”, respectively.

(Values after patent WO2013005649A1 (dated 2013).)
